Tests used:
adiponectin [1] = biological target: T1, adiponectin (Homo sapiens, UniProt Q15848); assay: Bond between peptide spot-synthesized on cellulose membrane and adiponectin, sandwich enzyme immunoassay (HRP-tagged anti-adiponectin antibody, Amplex Red fluorescence); type: binding; conditions: Example 3, FIG. 5; for bindability with adiponectin: conclusion from fluorescent intensity; for fluorescent intensity in the synthesis spot: peptides with conservative substitution compared with parent peptides SEQ ID NOs: 8 and 9
T1 construct: purchased R&D Systems
T1 sequence (Q15848 19-244): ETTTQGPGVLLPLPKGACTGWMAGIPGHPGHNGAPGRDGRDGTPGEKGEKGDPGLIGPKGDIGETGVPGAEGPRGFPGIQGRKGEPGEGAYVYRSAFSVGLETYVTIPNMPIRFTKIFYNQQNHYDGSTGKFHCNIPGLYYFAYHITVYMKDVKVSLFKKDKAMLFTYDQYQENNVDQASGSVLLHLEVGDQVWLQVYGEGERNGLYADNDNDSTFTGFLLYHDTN
From the text: In order to identify an amino-acid sequence having bindability with adiponectin, a peptide was synthesized on a cellulose membrane by use of a peptide synthesis device (Model MultiPep RS (Intavis AG)) utilizing a Fmoc-based peptide spot synthesis.
Immobilized on the cellulose membrane was polyethylene glycol having a terminal modified with an amino group. An Fmoc amino acid was bound with the amino group by using DIC (diisopropylcarbodiimide)/HOBt (hydroxybenzotriazole). After that, Fmoc was removed.
The cycle of the removal of Fmoc and the subsequent binding was repeated to synthesis a peptide. Then, N-terminals and side chains of all the peptides were deprotected. Thereby, peptides consisting of amino-acid sequences represented by SEQ. ID NOs: 1 to 15 were obtained.
The sandwich technique which is one of enzyme immunoassays was performed to measure the bond between each of the peptides thus synthesized and adiponectin.
First, a cellulose membrane was soaked in ethanol. Then, the cellulose membrane was continuously washed with phosphate buffered saline (PBS) (pH 7.4) so that ethanol contained in the cellulose membrane was replaced with PBS. In order that nonspecific binding is inhibited, the cellulose membrane was incubated overnight in a blocking solution (PBS containing 1% milk powder).
Then, the cellulose membrane was incubated for 1 hour in a blocking solution (PBS containing 1% milk powder) which contains 0.25 μg/mL human adiponectin (R&D Systems). Then, the cellulose membrane was washed with PBST (PBS containing 0.1% (v/v) Tween 20). Then, the cellulose membrane was incubated for 1 hour in a blocking solution containing […] anti-human adiponectin antibody (R&D Systems) which is tagged with HRP, and then washed with PBST five times.
After that, 100 μM fluorescent substrate (Amplex Red (Invitrogen)) containing 1 mM hydrogen peroxide was added to the cellulose membrane, and then they react with each other for 10 minutes. A fluorescent intensity in a synthesis spot was measured in such a manner that an […] wavelength of 595 nm of fluorescence from the fluorescent substrate was measured by a fluorescence imager (GE Healthcare) by exciting, with light of 540 nm, the fluorescent substrate in the synthesis spot. A bond strength of the peptide was worked out from the fluorescent intensity in the synthesis spot.
A peptide consist of the amino-acid sequence represented by SEQ ID NO. 16 was synthesized as in Example 1. Then, the bond between the synthesized peptide and adiponectin was measured as in Example 1.
Then, the bond between each of the synthesized peptides and adiponectin was measured as in Example 1.

adiponectin [2] = biological target: T1, adiponectin; assay: Bond between adiponectin immobilized onto a microplate and biotin-tagged peptide, enzyme immunoassay (HRP-tagged streptavidin, TMB); type: binding; conditions: Example 2, FIG. 4; for absorbance at 450 nm: 1 mM peptide with C-terminal lysine tagged with biotin, compared with peptide of SEQ ID NO. 17 (Comparative Example 2); for bindability with adiponectin: conclusion from absorbance
Procedure: As described below, the bond between adiponectin immobilized onto a microplate and each of peptides tagged with biotin (biotin-tagged peptide) was measured by using enzyme immunoassay.
First, peptides were prepared in such a manner that lysine was added to the C-terminal of each of peptides having amino-acid sequences represented by SEQ ID NOs: 14 and 15. Then, the amino group of a lysine side chain of each of the peptides thus prepared was tagged with biotin so that biotin-tagged peptides were prepared.
5 μg/mL adiponectin (R&D Systems) prepared with PBS was dispensed to wells of a 96-well microplate in an amount of 100 μL per well. Then, the peptides were incubated for 1 hour at 37° C. Adiponectin was thus immobilized in the wells. In order to inhibit nonspecific binding, a blocking solution (Protein-Free Blocking Buffer, PIERCE) was then added to the wells in an amount of 300 μL per well. Then, the peptides were incubated for 2 hours at room temperature. Then, the wells were washed three times with PBST (PBS containing 0.1% (v/v) Tween 20). Then, 1 mM biotin-tagged peptide was added to the wells in an amount of 100 μL per well. Then, the peptides were incubated for 1 hour at room temperature. Then, the wells were washed with PBST again.
Then, HRP-tagged streptavidin (R&D Systems) diluted with 200 parts of the blocking solution (Protein-Free Blocking Buffer, PIERCE) was added to the well in an amount of 100 μL per well. Then, the streptavidin was incubated for 1 hour at room temperature. Then, the wells were washed with PBST. Then, TMB (tetramethylbenzidine) was added to the wells in an amount of 100 μL per well so that they react with each other for 20 minutes. Then, the reaction was stopped by adding 1 M of HCL to the wells in an amount of 100 μL per well. Then, an absorbance at 450 nm was measured by use of a microplate reader (Bio-Rad).
The bond between a peptide having the amino-acid sequence represented by SEQ ID NO. 17 and adiponectin as in Example 2.

Row | bindability with adiponectin (adiponectin [1]) | absorbance at 450 nm (adiponectin [2]) | bindability with adiponectin (adiponectin [2]) | Substance | fluorescent intensity in the synthesis spot (adiponectin [1])
1 | had the bindability with adiponectin | – | – | 19 (KFATPKHR; Adiponectin binding peptide) [compound 19] | close to those of the peptides having the amino-acid sequences represented by SEQ ID NOs: 8 and 9
2 | had the bindability with adiponectin | – | – | 18 (MGSFVPY; Adiponectin binding peptide) [compound 18] | close to those of the peptides having the amino-acid sequences represented by SEQ ID NOs: 8 and 9
3 | – | significantly higher in absorbance | had the bindability with adiponectin | 14 (ITPIHWVK; Adiponectin binding peptide) [compound 14] | –
4 | – | significantly higher in absorbance | had the bindability with adiponectin | 15 (ILLPLRIN; Adiponectin binding peptide) [compound 15] | –
